The source of these data is US20210238260.

For orientation: kcat/KM means the turnover number divided by the Michaelis constant.

B1: FIXa D104N/K106S/I251S/R318Y/R338E/E410N (protein)
chain 1: YNSGKLEEFVQGNLERECMEEKCSFEEAREVFENTERTTEFWKQYVDGDQCESNPCLNGGSCKDDINSYECWCPFGFEGKNCELDVTCNIKNGRCEQFCKNSANNSVVCSCTEGYRLAENQKSCEPAVPFPCGRVSVSQTSKLTR
chain 2: VVGGEDAKPGQFPWQVVLNGKVDAFCGGSIVNEKWIVTAAHCVETGVKITVVAGEHNIEETEHTEQKRNVSRIIPHHNYNAAINKYNHDIALLELDEPLVLNSYVTPICIADKEYTNIFLKFGSGYVSGWGRVFHKGYSALVLQYLRVPLVDRATCLESTKFTIYNNMFCAGFHEGGRDSCQGDSGGPHVTEVEGTSFLTGIISWGEECAMKGKYGIYTKVSRYVNWIKNKTKLT
B2: FIXa variant K293A/R338A/R403A (protein)
chain 1: YNSGKLEEFVQGNLERECMEEKCSFEEAREVFENTERTTEFWKQYVDGDQCESNPCLNGGSCKDDINSYECWCPFGFEGKNCELDVTCNIKNGRCEQFCKNSADNKVVCSCTEGYRLAENQKSCEPAVPFPCGRVSVSQTSKLTR
chain 2: VVGGEDAKPGQFPWQVVLNGKVDAFCGGSIVNEKWIVTAAHCVETGVKITVVAGEHNIEETEHTEQKRNVIRIIPHHNYNAAINKYNHDIALLELDEPLVLNSYVTPICIADAEYTNIFLKFGSGYVSGWGRVFHKGRSALVLQYLRVPLVDRATCLASTKFTIYNNMFCAGFHEGGRDSCQGDSGGPHVTEVEGTSFLTGIISWGEECAMKGKYGIYTKVSAYVNWIKEKTKLT
B3: FIXa D104N/K106S/K228N/K247N/N249S (protein)
chain 1: YNSGKLEEFVQGNLERECMEEKCSFEEAREVFENTERTTEFWKQYVDGDQCESNPCLNGGSCKDDINSYECWCPFGFEGKNCELDVTCNIKNGRCEQFCKNSANNSVVCSCTEGYRLAENQKSCEPAVPFPCGRVSVSQTSKLTR
chain 2: VVGGEDAKPGQFPWQVVLNGKVDAFCGGSIVNEKWIVTAAHCVETGVNITVVAGEHNIEETEHTEQNRSVIRIIPHHNYNAAINKYNHDIALLELDEPLVLNSYVTPICIADKEYTNIFLKFGSGYVSGWGRVFHKGRSALVLQYLRVPLVDRATCLRSTKFTIYNNMFCAGFHEGGRDSCQGDSGGPHVTEVEGTSFLTGIISWGEECAMKGKYGIYTKVSRYVNWIKEKTKLT
B4: FIXa R318Y/R338E/E410S (protein)
chain 1: YNSGKLEEFVQGNLERECMEEKCSFEEAREVFENTERTTEFWKQYVDGDQCESNPCLNGGSCKDDINSYECWCPFGFEGKNCELDVTCNIKNGRCEQFCKNSADNKVVCSCTEGYRLAENQKSCEPAVPFPCGRVSVSQTSKLTR
chain 2: VVGGEDAKPGQFPWQVVLNGKVDAFCGGSIVNEKWIVTAAHCVETGVKITVVAGEHNIEETEHTEQKRNVIRIIPHHNYNAAINKYNHDIALLELDEPLVLNSYVTPICIADKEYTNIFLKFGSGYVSGWGRVFHKGYSALVLQYLRVPLVDRATCLESTKFTIYNNMFCAGFHEGGRDSCQGDSGGPHVTEVEGTSFLTGIISWGEECAMKGKYGIYTKVSRYVNWIKSKTKLT
B5: FIXa D104N/K106S/K247N/N249S/R318Y/R338E/R403E/E410N (protein)
chain 1: YNSGKLEEFVQGNLERECMEEKCSFEEAREVFENTERTTEFWKQYVDGDQCESNPCLNGGSCKDDINSYECWCPFGFEGKNCELDVTCNIKNGRCEQFCKNSANNSVVCSCTEGYRLAENQKSCEPAVPFPCGRVSVSQTSKLTR
chain 2: VVGGEDAKPGQFPWQVVLNGKVDAFCGGSIVNEKWIVTAAHCVETGVKITVVAGEHNIEETEHTEQNRSVIRIIPHHNYNAAINKYNHDIALLELDEPLVLNSYVTPICIADKEYTNIFLKFGSGYVSGWGRVFHKGYSALVLQYLRVPLVDRATCLESTKFTIYNNMFCAGFHEGGRDSCQGDSGGPHVTEVEGTSFLTGIISWGEECAMKGKYGIYTKVSEYVNWIKNKTKLT
B6: FIXa A103N/N105S/K247N/N249S/R318Y/R338E/R403E/E410N (protein)
chain 1: YNSGKLEEFVQGNLERECMEEKCSFEEAREVFENTERTTEFWKQYVDGDQCESNPCLNGGSCKDDINSYECWCPFGFEGKNCELDVTCNIKNGRCEQFCKNSNDSKVVCSCTEGYRLAENQKSCEPAVPFPCGRVSVSQTSKLTR
chain 2: VVGGEDAKPGQFPWQVVLNGKVDAFCGGSIVNEKWIVTAAHCVETGVKITVVAGEHNIEETEHTEQNRSVIRIIPHHNYNAAINKYNHDIALLELDEPLVLNSYVTPICIADKEYTNIFLKFGSGYVSGWGRVFHKGYSALVLQYLRVPLVDRATCLESTKFTIYNNMFCAGFHEGGRDSCQGDSGGPHVTEVEGTSFLTGIISWGEECAMKGKYGIYTKVSEYVNWIKNKTKLT
B7: FIXa D104N/K106S/Y155F/K228N/K247N/N249S (protein)
chain 1: YNSGKLEEFVQGNLERECMEEKCSFEEAREVFENTERTTEFWKQYVDGDQCESNPCLNGGSCKDDINSYECWCPFGFEGKNCELDVTCNIKNGRCEQFCKNSANNSVVCSCTEGYRLAENQKSCEPAVPFPCGRVSVSQTSKLTR
chain 2: VVGGEDAKPGQFPWQVVLNGKVDAFCGGSIVNEKWIVTAAHCVETGVNITVVAGEHNIEETEHTEQNRSVIRIIPHHNYNAAINKYNHDIALLELDEPLVLNSYVTPICIADKEYTNIFLKFGSGYVSGWGRVFHKGRSALVLQYLRVPLVDRATCLRSTKFTIYNNMFCAGFHEGGRDSCQGDSGGPHVTEVEGTSFLTGIISWGEECAMKGKYGIYTKVSRYVNWIKEKTKLT
B8: FIXa Y155F/K247N/N249S/R318Y/R338E/R403E/E410N (protein)
chain 1: YNSGKLEEFVQGNLERECMEEKCSFEEAREVFENTERTTEFWKQYVDGDQCESNPCLNGGSCKDDINSYECWCPFGFEGKNCELDVTCNIKNGRCEQFCKNSADNKVVCSCTEGYRLAENQKSCEPAVPFPCGRVSVSQTSKLTR
chain 2: VVGGEDAKPGQFPWQVVLNGKVDAFCGGSIVNEKWIVTAAHCVETGVKITVVAGEHNIEETEHTEQNRSVIRIIPHHNYNAAINKYNHDIALLELDEPLVLNSYVTPICIADKEYTNIFLKFGSGYVSGWGRVFHKGYSALVLQYLRVPLVDRATCLESTKFTIYNNMFCAGFHEGGRDSCQGDSGGPHVTEVEGTSFLTGIISWGEECAMKGKYGIYTKVSEYVNWIKNKTKLT
B9: FIXa Y155F/K247N/N249S/R318Y/R338E/E410N (protein)
chain 1: YNSGKLEEFVQGNLERECMEEKCSFEEAREVFENTERTTEFWKQYVDGDQCESNPCLNGGSCKDDINSYECWCPFGFEGKNCELDVTCNIKNGRCEQFCKNSADNKVVCSCTEGYRLAENQKSCEPAVPFPCGRVSVSQTSKLTR
chain 2: VVGGEDAKPGQFPWQVVLNGKVDAFCGGSIVNEKWIVTAAHCVETGVKITVVAGEHNIEETEHTEQNRSVIRIIPHHNYNAAINKYNHDIALLELDEPLVLNSYVTPICIADKEYTNIFLKFGSGYVSGWGRVFHKGYSALVLQYLRVPLVDRATCLESTKFTIYNNMFCAGFHEGGRDSCQGDSGGPHVTEVEGTSFLTGIISWGEECAMKGKYGIYTKVSRYVNWIKNKTKLT
B10: FIXa R318Y/R338E/R403E/E410S (protein)
chain 1: YNSGKLEEFVQGNLERECMEEKCSFEEAREVFENTERTTEFWKQYVDGDQCESNPCLNGGSCKDDINSYECWCPFGFEGKNCELDVTCNIKNGRCEQFCKNSADNKVVCSCTEGYRLAENQKSCEPAVPFPCGRVSVSQTSKLTR
chain 2: VVGGEDAKPGQFPWQVVLNGKVDAFCGGSIVNEKWIVTAAHCVETGVKITVVAGEHNIEETEHTEQKRNVIRIIPHHNYNAAINKYNHDIALLELDEPLVLNSYVTPICIADKEYTNIFLKFGSGYVSGWGRVFHKGYSALVLQYLRVPLVDRATCLESTKFTIYNNMFCAGFHEGGRDSCQGDSGGPHVTEVEGTSFLTGIISWGEECAMKGKYGIYTKVSEYVNWIKSKTKLT
B11: FIXa K228N/K247N/N249S (protein)
chain 1: YNSGKLEEFVQGNLERECMEEKCSFEEAREVFENTERTTEFWKQYVDGDQCESNPCLNGGSCKDDINSYECWCPFGFEGKNCELDVTCNIKNGRCEQFCKNSADNKVVCSCTEGYRLAENQKSCEPAVPFPCGRVSVSQTSKLTR
chain 2: VVGGEDAKPGQFPWQVVLNGKVDAFCGGSIVNEKWIVTAAHCVETGVNITVVAGEHNIEETEHTEQNRSVIRIIPHHNYNAAINKYNHDIALLELDEPLVLNSYVTPICIADKEYTNIFLKFGSGYVSGWGRVFHKGRSALVLQYLRVPLVDRATCLRSTKFTIYNNMFCAGFHEGGRDSCQGDSGGPHVTEVEGTSFLTGIISWGEECAMKGKYGIYTKVSRYVNWIKEKTKLT
B12: FIXa K247N/N249S/R318Y/R338E/E410N (protein)
chain 1: YNSGKLEEFVQGNLERECMEEKCSFEEAREVFENTERTTEFWKQYVDGDQCESNPCLNGGSCKDDINSYECWCPFGFEGKNCELDVTCNIKNGRCEQFCKNSADNKVVCSCTEGYRLAENQKSCEPAVPFPCGRVSVSQTSKLTR
chain 2: VVGGEDAKPGQFPWQVVLNGKVDAFCGGSIVNEKWIVTAAHCVETGVKITVVAGEHNIEETEHTEQNRSVIRIIPHHNYNAAINKYNHDIALLELDEPLVLNSYVTPICIADKEYTNIFLKFGSGYVSGWGRVFHKGYSALVLQYLRVPLVDRATCLESTKFTIYNNMFCAGFHEGGRDSCQGDSGGPHVTEVEGTSFLTGIISWGEECAMKGKYGIYTKVSRYVNWIKNKTKLT
B13: FIXa D104N/K106S/Y155F/K247N/N249S/R318Y/R338E/R403E/E410N (protein)
chain 1: YNSGKLEEFVQGNLERECMEEKCSFEEAREVFENTERTTEFWKQYVDGDQCESNPCLNGGSCKDDINSYECWCPFGFEGKNCELDVTCNIKNGRCEQFCKNSANNSVVCSCTEGYRLAENQKSCEPAVPFPCGRVSVSQTSKLTR
chain 2: VVGGEDAKPGQFPWQVVLNGKVDAFCGGSIVNEKWIVTAAHCVETGVKITVVAGEHNIEETEHTEQNRSVIRIIPHHNYNAAINKYNHDIALLELDEPLVLNSYVTPICIADKEYTNIFLKFGSGYVSGWGRVFHKGYSALVLQYLRVPLVDRATCLESTKFTIYNNMFCAGFHEGGRDSCQGDSGGPHVTEVEGTSFLTGIISWGEECAMKGKYGIYTKVSEYVNWIKNKTKLT
B14: FIXa K247N/N249S/R318Y/R338E/R403E/E410N (protein)
chain 1: YNSGKLEEFVQGNLERECMEEKCSFEEAREVFENTERTTEFWKQYVDGDQCESNPCLNGGSCKDDINSYECWCPFGFEGKNCELDVTCNIKNGRCEQFCKNSADNKVVCSCTEGYRLAENQKSCEPAVPFPCGRVSVSQTSKLTR
chain 2: VVGGEDAKPGQFPWQVVLNGKVDAFCGGSIVNEKWIVTAAHCVETGVKITVVAGEHNIEETEHTEQNRSVIRIIPHHNYNAAINKYNHDIALLELDEPLVLNSYVTPICIADKEYTNIFLKFGSGYVSGWGRVFHKGYSALVLQYLRVPLVDRATCLESTKFTIYNNMFCAGFHEGGRDSCQGDSGGPHVTEVEGTSFLTGIISWGEECAMKGKYGIYTKVSEYVNWIKNKTKLT

In the series the target is Factor X (FX), P00742.
Chain of Factor X (FX), P00742 (P00742 whole entry, looked up): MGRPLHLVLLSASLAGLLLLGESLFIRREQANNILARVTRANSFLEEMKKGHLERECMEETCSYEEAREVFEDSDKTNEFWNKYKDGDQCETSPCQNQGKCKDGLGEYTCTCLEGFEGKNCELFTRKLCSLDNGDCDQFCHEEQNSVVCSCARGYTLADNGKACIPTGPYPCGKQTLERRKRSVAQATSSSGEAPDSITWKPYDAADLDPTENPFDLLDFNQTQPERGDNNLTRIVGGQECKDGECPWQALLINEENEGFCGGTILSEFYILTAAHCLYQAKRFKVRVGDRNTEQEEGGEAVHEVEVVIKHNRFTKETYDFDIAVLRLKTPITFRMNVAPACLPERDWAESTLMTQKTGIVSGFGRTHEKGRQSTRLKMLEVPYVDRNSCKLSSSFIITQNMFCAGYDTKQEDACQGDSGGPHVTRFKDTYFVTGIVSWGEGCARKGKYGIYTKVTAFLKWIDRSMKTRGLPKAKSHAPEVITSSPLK
As to B1, the KM (FX activation by FIXa in the Xase complex with FVIIIa, PC/PS vesicles and Ca2+) was found to be 0.0243 µM.

Consider B2, for which the “% of WT kcat/KM” value was found to be 53% and the kcat/KM is 2.5e+07 M⁻¹ s⁻¹.

As to B3, the KM (FX activation by FIXa in the Xase complex with FVIIIa, PC/PS vesicles and Ca2+) was 0.0771 µM.

As to B4, the KM (FX activation by FIXa in the Xase complex with FVIIIa, PC/PS vesicles and Ca2+) turned out to be 0.0164 µM.

B5: the KM (FX activation by FIXa in the Xase complex with FVIIIa, PC/PS vesicles and Ca2+) came to 0.059 µM.

As for B6, the KM (FX activation by FIXa in the Xase complex with FVIIIa, PC/PS vesicles and Ca2+) came out at 0.028 µM.

As to B7, the KM (FX activation by FIXa in the Xase complex with FVIIIa, PC/PS vesicles and Ca2+) worked out at 0.0753 µM.

For B8, the KM (FX activation by FIXa in the Xase complex with FVIIIa, PC/PS vesicles and Ca2+) amounted to 0.0363 µM.

On to B9, for which the KM (FX activation by FIXa in the Xase complex with FVIIIa, PC/PS vesicles and Ca2+) was 0.0147 µM.

For the protein B10, the KM (FX activation by FIXa in the Xase complex with FVIIIa, PC/PS vesicles and Ca2+) amounted to 0.0364 µM.

On to B11, for which the KM (FX activation by FIXa in the Xase complex with FVIIIa, PC/PS vesicles and Ca2+) stood at 0.0945 µM.

In the case of B12, the KM (FX activation by FIXa in the Xase complex with FVIIIa, PC/PS vesicles and Ca2+) came to 0.0166 µM.

Turning to B13, the KM (FX activation by FIXa in the Xase complex with FVIIIa, PC/PS vesicles and Ca2+) was found to be 0.0518 µM.

With B14, the KM (FX activation by FIXa in the Xase complex with FVIIIa, PC/PS vesicles and Ca2+) was 0.0392 µM.
